Reference: patent US20260258084A1, “New Peptides as Selective IL-23 Receptor Antagonists” (Sanofi, priority 2022, published 2026)
Starred links: 1 amine or outer side, 2 acyl side, 3 side chain; linkers in the order of their positions; H or OH if unused. Positions of bridges follow the written chain, without caps; N, C: chain ends. Non-standard residues stand in square brackets, D forms with d. No end group written: not given here. Yde = (2S)-2-amino-3-[4-[2-(dimethylamino)ethoxy]phenyl]propanoic acid, CN(C)CCOc1ccc(C[C@H](N[*:1])C(=O)[*:2])cc1; Trp(7-Me) = Cc1cccc2c(C[C@H](N)C(=O)O)c[nH]c12; Trp(1-Me) = Cn1cc(C[C@H](N)C(=O)O)c2ccccc21; αMeLys(Me2) = CN(C)CCCC[C@](C)(N)C(=O)O; 2Nal = N[C@@H](Cc1ccc2ccccc2c1)C(=O)O; εLys = N[C@@H](CCCCN[*:1])C(=O)[*:2]; 3Pal = N[C@@H](Cc1cccnc1)C(=O)O; Dad = desamino-aspartamic acid; Lys(Me) = CNCCCC[C@H](N)C(=O)O; αMeL = CC(C)C[C@](C)(N)C(=O)O; Thp = NC1(C(=O)O)CCOCC1; Aib = CC(C)(N)C(=O)O; Ava = NCCCCC(=O)O; Sar = CNCC(=O)O

T1: IL-23 receptor on the surface of HEK-Blue IL-23 cells (UniProt Q5VWK5 24-629, limits assumed)
T1 sequence (looked up): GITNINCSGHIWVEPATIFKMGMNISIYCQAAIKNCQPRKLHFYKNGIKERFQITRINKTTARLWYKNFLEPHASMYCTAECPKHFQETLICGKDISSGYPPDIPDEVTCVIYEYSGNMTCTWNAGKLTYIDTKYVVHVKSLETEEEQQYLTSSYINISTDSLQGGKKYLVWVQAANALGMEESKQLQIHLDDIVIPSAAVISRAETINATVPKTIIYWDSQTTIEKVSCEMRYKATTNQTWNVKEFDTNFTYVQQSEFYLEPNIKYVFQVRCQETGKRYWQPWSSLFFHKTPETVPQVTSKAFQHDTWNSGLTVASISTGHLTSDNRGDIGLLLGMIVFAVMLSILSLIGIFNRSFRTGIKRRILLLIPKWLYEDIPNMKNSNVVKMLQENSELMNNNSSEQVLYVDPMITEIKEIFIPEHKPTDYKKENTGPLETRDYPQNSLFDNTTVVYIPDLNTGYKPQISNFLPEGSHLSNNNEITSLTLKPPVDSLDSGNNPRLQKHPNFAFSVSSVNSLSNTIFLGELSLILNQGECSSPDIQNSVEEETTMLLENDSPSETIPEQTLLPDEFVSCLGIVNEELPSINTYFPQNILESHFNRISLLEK


biological target: T1, IL-23 receptor on the surface of …; test: cell-based or functional assay

| Binder | pSTAT3 (nM) |
| --- | --- |
| [Ava]CK[Trp(1-Me)]K(Ac)C[Yde][2Nal][Thp]EN[3Pal][Sar]-NH2 (lactam N-10; disulfide 2-6; not fully specified (residue 3); printed as Apt(§1)-C(§3)(@2)-K[aAc](@3)-Wme-K[Ac]-C(@2)-Yde-Nal-ThpE(§1)-N-Pal-Sar-NH2; also: K[aAc]: Cys2 bonded to epsilon-NH2 of acetylated Lys3, acetyl presumably on alpha-amine) [Compound of SEQ ID NO: 126] | 0.11 |
| XCNTWQCXXXDNG (not fully specified; Ahx(§1)-C(@2)-N-T-W-Q-C(@2)-Yae-Nal-Aib-D(§1)-N-G-NH2) [Compound of SEQ ID NO: 9] | 65 |
| [Dad]CNT[Trp(7-Me)]K(Ac)C[Yde][2Nal][αMeLys(Me2)]KN[3Pal][Sar]-NH2 (lactam (positions not given here); disulfide 2-7; not fully specified (bridges); printed as Dad(§1)-C(@2)-N-T-Wim-K[Ac]-C(@2)-Yde-Nal-MKdm-K(§1)-N-Pal-Sar-NH2) [Compound of SEQ ID NO: 151] | 0.06 |
| [Dad]CNT[Trp(7-Me)]LC[Yde][2Nal][αMeLys(Me2)]KN[3Pal]-NH2 (lactam (positions not given here); disulfide 2-7; not fully specified (bridges); printed as Dad(§1)-C(@2)-N-T-Wim-L-C(@2)-Yde-Nal-MKdm-K(§1)-N-Pal-NH2) [Compound of SEQ ID NO: 150] | 0.13 |
| [Ava]CK[Trp(7-Me)]K(Ac)C[Yde][2Nal][αMeLys(Me2)]EN[3Pal][Sar]-NH2 (lactam N-10; disulfide 2-6; not fully specified (residue 3); printed as Apt(§1)-C(§3)(@2)-K[aAc](@3)-Wim-K[Ac]-C(@2)-Yde-Nal-MKdm-E(§1)-N-Pal-Sar-NH2; also: K3 acetylated (K[aAc]), acetyl site not given here, ε-NH2 takes the Cys2 bond) [Compound of SEQ ID NO: 149] | 0.04 |

Continued, values first:

| pSTAT3 (nM) | Binder |
| --- | --- |
| 0.39 | [Dad]C[εLys][Trp(7-Me)]LC[Yde][2Nal][αMeL]KN[3Pal][Sar]-NH2 (disulfide 2-6; lactam 1-10; also: K3 acetylated (K[aAc]), acetyl site not given here, ε-NH2 takes the Cys2 bond) [Compound of SEQ ID NO: 158] |
| 0.1 | [Dad]CNT[Trp(7-Me)]LC[Yde][2Nal][αMeLys(Me2)]KA[3Pal][Sar]-NH2 (lactam (positions not given here); disulfide 2-7; not fully specified (bridges); printed as Dad(§1)-C(@2)-N-T-Wim-L-C(@2)-Yde-Nal-MKdm-K(§1)-A-Pal-Sar-NH2) [Compound of SEQ ID NO: 155] |
| 0.06 | [Dad]CNT[Trp(7-Me)]K(Ac)C[Yde][2Nal][Aib]KN[3Pal][Sar]-NH2 (lactam (positions not given here); disulfide 2-7; not fully specified (bridges); printed as Dad(§1)-C(@2)-N-T-Wim-K[Ac]-C(@2)-Yde-Nal-Aib-K(§1)-N-Pal-Sar-NH2) [Compound of SEQ ID NO: 157] |
| 0.08 | [Dad]CNT[Trp(7-Me)]LC[Yde][2Nal][αMeLys(Me2)]KN[3Pal][Sar]-NH2 (lactam (positions not given here); disulfide 2-7; not fully specified (bridges); printed as Dad(§1)-C(@2)-N-T-Wim-L-C(@2)-Yde-Nal-MKdm-K(§1)-N-Pal-Sar-NH2) [Compound of SEQ ID NO: 154] |
| 0.08 | [Dad]CNT[Trp(7-Me)]K(Ac)C[Yde][2Nal][αMeLys(Me2)][Lys(Me)]N[3Pal][Sar]-NH2 (lactam (positions not given here); disulfide 2-7; not fully specified (bridges); printed as Dad(§1)-C(@2)-N-T-Wim-K[Ac]-C(@2)-Yde-Nal-MKdm-Kme(§1)-N-Pal-Sar-NH2) [Compound of SEQ ID NO: 156] |
